For five molecules, FRET results are on record in article PMC3471760.

Assay [1] deals with YFP-TRPV6 (human ('hTRPV6' in p-0012; the printed GenBank AF160798 is rat, from memory)). Description: FRET or BRET.
The target in assay [2] is CFP-N198-TRPV6 (human ('hTRPV6' in p-0012; the printed GenBank AF160798 is rat, from memory)). The assay is described as follows: FRET or BRET.
Sequence of CFP-N198-TRPV6 (human ('hTRPV6' in p-0012; the printed GenBank AF160798 is rat, from memory)) (Q9R186 whole entry): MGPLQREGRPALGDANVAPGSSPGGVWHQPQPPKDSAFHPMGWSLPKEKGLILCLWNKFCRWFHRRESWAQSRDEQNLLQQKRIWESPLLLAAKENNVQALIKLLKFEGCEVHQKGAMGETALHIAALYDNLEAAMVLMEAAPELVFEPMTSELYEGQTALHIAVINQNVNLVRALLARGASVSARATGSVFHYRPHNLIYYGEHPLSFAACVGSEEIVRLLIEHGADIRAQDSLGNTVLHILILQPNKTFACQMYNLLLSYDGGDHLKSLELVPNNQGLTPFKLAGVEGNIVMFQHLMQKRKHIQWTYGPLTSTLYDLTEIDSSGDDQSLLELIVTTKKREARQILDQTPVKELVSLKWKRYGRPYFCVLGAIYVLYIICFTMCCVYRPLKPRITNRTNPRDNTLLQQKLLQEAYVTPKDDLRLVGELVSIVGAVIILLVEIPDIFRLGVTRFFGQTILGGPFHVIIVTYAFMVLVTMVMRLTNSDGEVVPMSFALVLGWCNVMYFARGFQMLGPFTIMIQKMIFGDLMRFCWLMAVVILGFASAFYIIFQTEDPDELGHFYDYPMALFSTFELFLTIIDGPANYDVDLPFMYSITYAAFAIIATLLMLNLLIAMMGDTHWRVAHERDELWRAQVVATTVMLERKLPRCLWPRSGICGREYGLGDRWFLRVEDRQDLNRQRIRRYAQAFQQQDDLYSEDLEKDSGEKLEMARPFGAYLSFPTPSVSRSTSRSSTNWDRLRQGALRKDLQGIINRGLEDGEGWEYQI

Sequence of YFP-TRPV6 (human ('hTRPV6' in p-0012; the printed GenBank AF160798 is rat, from memory)) (Q9R186 whole entry): as above

In the case of “CFP-TRPC1 (from UniProt P48995-2 1-759) (natural protein)”, the FRET in assay [1] came out at 0.07.
In the case of “YFP-N193-TRPC1 (from UniProt P48995-2 1-193) (domain or fragment)”, the FRET in assay [2] came out at 0.11.
The molecule “CFP-TRPC4 (from UniProt Q9QUQ5-1 1-974) (natural protein)” displayed an FRET in assay [1] of 0.02.
Same read-out and setting: with “CFP-TRPC5 (from UniProt Q9QX29 1-975) (natural protein)” the figure was 0.02.

B1: CFP-TRPC3 (natural protein)
chain: MSTKVRKCKEQARVTFPAPEEEEDEGEDEGAEPQRRRRGWRGVNGGLEPRSAPSQREPHGYCPPPFSHGPDLSMEGSPSLRRMTVMREKGRRQAVRGPAFMFNDRGTSLTAEEERFLDAAEYGNIPVVRKMLEESKTLNVNCVDYMGQNALQLAVGNEHLEVTELLLKKENLARIGDALLLAISKGYVRIVEAILNHPGFAASKRLTLSPCEQELQDDDFYAYDEDGTRFSPDITPIILAAHCQKYEVVHMLLMKGARIERPHDYFCKCGDCMEKQRHDSFSHSRSRINAYKGLASPAYLSLSSEDPVLTALELSNELAKLANIEKEFKNDYRKLSMQCKDFVVGVLDLCRDSEEVEAILNGDLESAEPLEVHRHKASLSRVKLAIKYEVKKFVAHPNCQQQLLTIWYENLSGLREQTIAIKCLVVLVVALGLPFLAIGYWIAPCSRLGKILRSPFMKFVAHAASFIIFLGLLVFNASDRFEGITTLPNITVTDYPKQIFRVKTTQFTWTEMLIMVWVLGMMWSECKELWLEGPREYILQLWNVLDFGMLSIFIAAFTARFLAFLQATKAQQYVDSYVQESDLSEVTLPPEIQYFTYARDKWLPSDPQIISEGLYAIAVVLSFSRIAYILPANESFGPLQISLGRTVKDIFKFMVLFIMVFFAFMIGMFILYSYYLGAKVNAAFTTVEESFKTLFWSIFGLSEVTSVVLKYDHKFIENIGYVLYGIYNVTMVVVLLNMLIAMINSSYQEIEDDSDVEWKFARSKLWLSYFDDGKTLPPPFSLVPSPKSFVYFIMRIVNFPKCRRRRLQKDIEMGMGNSKSRLNLFTQSNSRVFESHSFNSILNQPTRYQQIMKRLIKRYVLKAQVDKENDEVNEGELKEIKQDISSLRYELLEDKSQATEELAILIHKLSEKLNPSMLRCE
Take B1: in assay [1], the FRET was 0.01.
